Experimental data as given in the supplement of paper PMC10567573.
± gives the standard deviation.

Experiment: protein stability index of a GFP-peptide fusion (GPS, HEK-293T) (PSI 1-6); higher = more stable
Details: c terminus: a fixed tail appended
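Note: 24-mer peptide tiles fused after GFP, lentivirally expressed, FACS-sorted into six equal bins by GFP/DsRed ratio, decoded by Illumina sequencing, PSI is the read-weighted mean bin number.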

Sequence | protein stability index (treatment: DMSO) | protein stability index (treatment: MLN4924 1 uM, 8 h)
RKRRLFCTMEPEPVQPGMLIDVCK [TRIM35] | 2.6 ± 0.41 | 2.69 ± 0.12
RKVCVGGKRRKDEISVDSLDFSKK [PPP2R2B] | 4.33 ± 0.26 | 4.31 ± 0.27
RKWHKASNYIFVAIFWIVFLLLIV [P2RY14] | 3.34 ± 0.35 | 3.43 ± 0.17
RLDLAAVTLRRGLRSRASRCRPRS [FAM189A2] | 3.7 ± 0.15 | 3.89 ± 0.32
RLLQASGGGLTGVSGSHFVGVDGV [PCDHGA10] | 2.78 ± 0.46 | 3.01 ± 0.28
RLMDVCATSRTDREIKVTLVFEHV [CDK4] | 2.65 ± 0.57 | 2.5 ± 0.15
RMGDADYLAAWHRLVLPIAYEFNP [HDAC6] | 2.27 ± 0.56 | 2.3 ± 0.44
RMIPGQPPASARRLSVPRDSACDE [IRX6] | 5.29 ± 0.24 | 5.29 ± 0.15
RMKKNGMEMTRPTPPHLTSAMAEN [NOL4L] | 4.41 ± 0.071 | 4.37 ± 0.29
RMQYAPDLMKRLRFALIPAPELVE [KLHL14] | 2.25 ± 0.1 | 2.05 ± 0.088
RNKESPVFAPVYFPEELHRKAALE [HMOX1] | 4.11 ± 0.4 | 4.147 ± 0.023
RPISGTAVAHKTPRCPGSVNEKLP [SMOC2] | 4.53 ± 0.14 | 4.59 ± 0.26
RPNDDSLAFLDKIKSVKESLQESV [IQUB] | 3.64 ± 0.034 | 3.34 ± 0.32
RRRVPVRNLGKVVHYAKVQLRFQH [PLEKHN1] | 2.35 ± 0.39 | 2.29 ± 0.25
RRSNSPDKFKRPTPPPSPNTQTPV [CCDC6] | 5.27 ± 0.19 | 5.25 ± 0.16
RRWHKSRLLQASGGGLTGVSGSHF [PCDHGA10] | 2.67 ± 0.21 | 2.83 ± 0.16
RSIRQYYKKGIIRKPDISQRLVYQ [SPDEF] | 2.84 ± 0.24 | 2.97 ± 0.42
RSLFIDRTIVKGYNENVYTEDGKL [MED27] | 4.07 ± 0.25 | 4.12 ± 0.21
RSPTLEPPRGRSEAPDSLNGPLGP [SMG5] | 4.89 ± 0.26 | 4.77 ± 0.055
RTLSLIVCTFTYLLVGAAVFDALE [KCNK9] | 2.82 ± 0.7 | 3.19 ± 0.81
RTNDGKITYPPGVKEISDKISKEE [PDS5B] | 5.02 ± 0.19 | 5.197 ± 0.006
RTNLPIFKLKESCVRRRYSDFEWL [SNX12] | 2.27 ± 0.29 | 2.74 ± 0.56
RTTSVRCRGIPRGPVRPAIPPPLS [NEK8] | 3.37 ± 0.1 | 3.64 ± 0.23

Sequence | protein stability index (treatment: DMSO) | protein stability index (treatment: MLN4924 1 uM, 8 h)
RTYKQRFLFAKLFSHITSARKARK [PHTF1] | 2.17 ± 0.14 | 2.55 ± 0.58
RWNKVKMVVSREEVELAYQEAMFN [SEPHS2] | 2.62 ± 0.21 | 2.66 ± 0.29
RWTSYRFSRVCRLHRGQLSLFCLE [TRIM35] | 2.43 ± 0.54 | 2.23 ± 0.42
RYCMQLSQIQGLIGSVEEQLAQLR [KRT16] | 2.28 ± 0.45 | 2.49 ± 0.28
RYLLCELVSDDPRCRLSLDDRVLS [POP5] | 2.31 ± 0.25 | 2.36 ± 0.27
RYRQAGSSGPGNSQNSFLVQEVME [RPAIN] | 4.17 ± 0.23 | 3.82 ± 0.28
SADVNARDKNWQTPLHVAAANKAV [ANKRD44] | 4.18 ± 0.31 | 4.07 ± 0.18
SADVVSPSGHSDAQTLAMMLQEQL [PPFIA4] | 4.54 ± 0.32 | 4.97 ± 0.35
SAGVGRTGVFITLSIVLERMRYEG [PTPRD] | 2.08 ± 0.095 | 2.34 ± 0.28
SAMALVKHSVLLSASRKSAEQLRI [WEE1] | 2.06 ± 0.093 | 2.16 ± 0.13
SARDCKFTGNFFYNYMMGIEFNPR [DHCR7] | 2.24 ± 0.44 | 2.07 ± 0.59
SARMSAGLPGPEAARSGDAAANKL [PLEKHN1] | 5.22 ± 0.085 | 4.92 ± 0.18
SARQGELQKVLLMLVDGIDPNFKM [EHMT1] | 1.98 ± 0.23 | 2.04 ± 0.29
SASASTTTTVTAVTAEVDLFGDAF [SNAP91] | 4.28 ± 0.28 | 4.28 ± 0.29
SASEMKQLIDNILEESDIDRDGTI [CIB1] | 5.31 ± 0.27 | 5.45 ± 0.2
SASLEVVKKDHVALQVPRGKEDST [CBY2] | 5.4 ± 0.16 | 5.35 ± 0.23
SCAWSLNIQANNCFSTGLSRRVLL [DCAF4] | 3.38 ± 0.47 | 2.35 ± 0.38
SCLKAIVLFTSDACGLSDVAHVES [NR2F2] | 2.43 ± 0.7 | 2.08 ± 0.36
SCVIPLRHGGLSLVQTTDFFYPLV [SEPHS2] | 2.42 ± 0.34 | 2.31 ± 0.45
SCYQVYCGRYINGHMLQHHGNSGH [HDAC6] | 2.49 ± 0.54 | 2.21 ± 0.16
SDTPYDSSASYEKENEMMKSHVMD [IKZF1] | 5.2 ± 0.31 | 5.13 ± 0.2
SEALLYALVHDHQAYAHYLLATFP [ANKRD9] | 2.7 ± 0.49 | 2.61 ± 0.53
SEEAPSTSGMGFHAPKIGSNGVEM [SDE2] | 4.92 ± 0.17 | 4.89 ± 0.1

Sequence | protein stability index (treatment: DMSO) | protein stability index (treatment: MLN4924 1 uM, 8 h)
SEEQLQEPITGWRKTVCHNGVLGL [LPCAT4] | 3.58 ± 0.45 | 3.64 ± 0.38
SEHLKQRREVAKTVFCLVVIFALC [EDNRA] | 2.58 ± 1.3 | 3.31 ± 0.89
SEPFLTPYLLGPDKNLTEREVFNE [SLC19A2] | 4.8 ± 0.053 | 4.83 ± 0.062
SETLEQKPHFESSTVKTETISFGS [EPB41L3] | 5.19 ± 0.073 | 4.95 ± 0.34
SFAQATQLGDLHTCLMMDMKACQE [INTS3] | 3.21 ± 0.19 | 3.3 ± 0.43
SFELLVRFFACPSKATFSRNIMNL [KCNA3] | 3.16 ± 0.46 | 2.96 ± 0.25
SGDAAAQPAFTGIKGKEGSALTEG [EPB41L3] | 5.55 ± 0.24 | 5.32 ± 0.33
SGFWGVARHFNYVGDLMGSLAYCL [DHCR7] | 2.11 ± 0.48 | 2.07 ± 0.11
SGGVASFICQATGDPRPKIVWNKK [PTPRD] | 3.46 ± 0.49 | 3.58 ± 0.11
SGKSEISELRRTMQALEIELQSQL [KRT17] | 3.58 ± 0.35 | 3.68 ± 0.15
SGRKNSTSKDLVTLGASSLREERG [C6orf223] | 4.77 ± 0.099 | 4.87 ± 0.26
SGTGKKEKEKKNRKGKDKENGSVS [EIF5] | 5.36 ± 0.24 | 5.31 ± 0.21
SGTIMKIGIEAKNLASYDVCSILL [MCOLN1] | 2.87 ± 0.55 | 2.64 ± 0.37
SGTPKRYSLELGKAIKQKLWEALC [C22orf31] | 2.9 ± 0.67 | 2.9 ± 0.37
SGYDGTFLFQKPGDKYEHHSYMGM [POMT2] | 2.68 ± 0.23 | 2.5 ± 0.5
SIPQSSLEPLKAIIQYRLPMKKNN [ACSBG2] | 3.48 ± 0.14 | 3.49 ± 0.3
SKAWHQKSHFQNSREWSGKEKWWD [PBXIP1] | 2.94 ± 0.04 | 3.2 ± 0.34
SKDCKPPVYLLLELEDKDGLQSAQ [MYBL2] | 3.93 ± 0.18 | 3.87 ± 0.12
SKIPHILKEMYDADLLEEEVIISW [EIF5] | 2.19 ± 0.38 | 2.4 ± 0.24
SKQLTLEQLRREKIDLENTLEQEQ [CCDC6] | 5.43 ± 0.26 | 5.2 ± 0.11
SKRLAVPCKLEKMRILAHGELVLA [TLE6] | 2.26 ± 0.49 | 2.35 ± 0.45
SKYENYFSASERLSLKRELSWYRG [HESX1] | 2.44 ± 0.26 | 2.31 ± 0.33
SLDKRQGEGLRIYWGSPEEQSLLS [TPRG1] | 2.77 ± 0.15 | 2.85 ± 0.39

Sequence | protein stability index (treatment: DMSO) | protein stability index (treatment: MLN4924 1 uM, 8 h)
SLEIEEKINKIRWLPQQNAAYFLL [PPP2R2B] | 2.34 ± 1.1 | 2.01 ± 1.1
SLQLVFGIELMEVDPIGHLYIFAT [MAGEA3] | 2.91 ± 0.23 | 2.74 ± 0.76
SLQQMQELSNILNLSYKQVKTWFQ [NANOGP8] | 2.27 ± 0.34 | 2.16 ± 0.12
SLRSSSSKLAQLTLEQILEHLDNL [INTS3] | 2.31 ± 0.2 | 2.55 ± 0.26
SLRTLKPEGNILRDRFKSFQRRNM [NOP53] | 3.22 ± 0.23 | 3.21 ± 0.21
SMDIARGLMVTCGTDRIVKIWDMT [WDFY1] | 2.25 ± 0.43 | 1.92 ± 0.33
SMHKYQPRLHIVKADENNGFGSKN [TBX5] | 3.94 ± 0.4 | 4.24 ± 0.33
SNQEVLQSCLLVIFATKPHVLPAV [PYCR3] | 3.34 ± 0.4 | 3.01 ± 0.34
SPGHSSAGQEGEDTLRRRLLAPEA [TOR1AIP2] | 4.29 ± 0.052 | 4.51 ± 0.27
SPSPSSRVTVSRASSSRSVRTTRG [LMNB1] | 5.08 ± 0.27 | 5.12 ± 0.09
SQEEAQGLPSSELDAVENQLKWAS [ZNF24] | 5.32 ± 0.2 | 5.08 ± 0.38
SQIQYMNTVVSTYVTTNVSLIPPR [TMEM106C] | 2.12 ± 0.22 | 2.07 ± 0.12
SQLPQVLHVSLGQKLVAAYVLGLL [MOSPD3] | 3.26 ± 0.94 | 2.75 ± 1.2
SRKNATQPPNAEEESGSSSASEEE [INTS3] | 5.53 ± 0.12 | 5.71 ± 0.14
SRNFIERNHMENGGDHRYVNNYTN [TRIM29] | 3.46 ± 0.22 | 3.57 ± 0.18
SRPNGTSAMLLVTLGKVLKVIVVM [MED27] | 2.88 ± 0.46 | 2.93 ± 0.68
SRREREPEPPAAVDFLEPDSGTCP [FCHO1] | 5.43 ± 0.22 | 5.44 ± 0.33
SRSNNMGIVGGFTQMIREGGARSL [SLC25A25] | 3.17 ± 0.27 | 3.47 ± 0.18
SSATTYFWYREALDISDSISESGG [SLC6A17] | 2.62 ± 0.46 | 2.73 ± 0.34
SSISSTSNEQLKVTQEPRAKKGRR [ZMYND11] | 5.24 ± 0.48 | 5.45 ± 0.077
